Measured values published in article PMC6381605, “NR4A Nuclear Receptors Target Poly-ADP-Ribosylated DNA-PKcs Protein to Promote DNA Repair”.

Target: NR4A2 R319A (UniProt Q06219 1-598, R319A)
Test: EMSA; EMSA: 1 ug protein, 10 mM Tris pH 8, 50 mM NaCl, 1 mM EDTA, 5% glycerol, 5 mM DTT, 20 ng/ul dIdC, 1.25 mg/ml BSA, 20 min room temperature; 5% PAGE 0.25x TBE. PAR dot blots left out (PAR is not a defined nucleic acid).
Conditions: protein: recombinant; tags: GST tag cleaved (PreScission); label: 32P (alpha-32P-dCTP Klenow fill-in); 5' overhang 4 nt (GATC) on both ends before Klenow fill-in

Sequence of NR4A2 R319A (Q06219 whole entry R319A): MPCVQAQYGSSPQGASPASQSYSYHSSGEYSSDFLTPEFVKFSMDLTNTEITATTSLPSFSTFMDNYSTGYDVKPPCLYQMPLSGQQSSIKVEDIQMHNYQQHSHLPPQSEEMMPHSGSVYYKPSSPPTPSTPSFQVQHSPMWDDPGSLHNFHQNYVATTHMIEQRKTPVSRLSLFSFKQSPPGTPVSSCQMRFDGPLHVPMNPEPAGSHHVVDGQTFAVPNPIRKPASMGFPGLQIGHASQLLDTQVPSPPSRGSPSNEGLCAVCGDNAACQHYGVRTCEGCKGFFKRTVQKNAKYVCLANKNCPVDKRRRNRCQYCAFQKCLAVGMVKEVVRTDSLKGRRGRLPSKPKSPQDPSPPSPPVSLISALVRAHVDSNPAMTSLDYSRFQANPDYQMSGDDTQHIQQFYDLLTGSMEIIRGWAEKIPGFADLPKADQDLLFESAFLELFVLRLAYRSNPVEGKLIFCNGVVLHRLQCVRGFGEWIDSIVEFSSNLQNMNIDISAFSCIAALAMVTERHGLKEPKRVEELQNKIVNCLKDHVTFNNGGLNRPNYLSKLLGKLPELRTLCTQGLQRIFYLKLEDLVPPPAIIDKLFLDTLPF

B1: NBRE (dsDNA)
DNA 1: GATCCTCGTGCGAAAAGGTCAAGCGCTA
DNA 2: GATCTAGCGCTTGACCTTTTCGCACGAG
binding result: no binding
